Laboratory results taken from patent US20230097015A1 (SEOUL NATIONAL UNIVERSITY R AND DB FOUNDATION, published 2023).

Columns and labels:
[1] = biological target: T1, TycC COM^A-CHS
T1 chain: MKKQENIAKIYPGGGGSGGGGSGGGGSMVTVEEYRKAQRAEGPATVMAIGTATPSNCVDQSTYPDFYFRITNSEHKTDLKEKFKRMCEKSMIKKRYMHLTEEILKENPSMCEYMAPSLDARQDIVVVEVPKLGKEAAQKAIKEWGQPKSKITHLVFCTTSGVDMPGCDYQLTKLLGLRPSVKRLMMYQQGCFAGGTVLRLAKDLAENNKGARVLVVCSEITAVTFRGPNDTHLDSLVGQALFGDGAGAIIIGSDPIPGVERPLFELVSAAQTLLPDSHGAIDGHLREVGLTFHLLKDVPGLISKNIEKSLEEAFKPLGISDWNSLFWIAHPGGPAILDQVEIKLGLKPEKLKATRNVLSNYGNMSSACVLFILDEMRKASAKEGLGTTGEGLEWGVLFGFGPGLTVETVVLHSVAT

[2] = biological target: T2, Kj12C COM^A-CHS
T2 chain: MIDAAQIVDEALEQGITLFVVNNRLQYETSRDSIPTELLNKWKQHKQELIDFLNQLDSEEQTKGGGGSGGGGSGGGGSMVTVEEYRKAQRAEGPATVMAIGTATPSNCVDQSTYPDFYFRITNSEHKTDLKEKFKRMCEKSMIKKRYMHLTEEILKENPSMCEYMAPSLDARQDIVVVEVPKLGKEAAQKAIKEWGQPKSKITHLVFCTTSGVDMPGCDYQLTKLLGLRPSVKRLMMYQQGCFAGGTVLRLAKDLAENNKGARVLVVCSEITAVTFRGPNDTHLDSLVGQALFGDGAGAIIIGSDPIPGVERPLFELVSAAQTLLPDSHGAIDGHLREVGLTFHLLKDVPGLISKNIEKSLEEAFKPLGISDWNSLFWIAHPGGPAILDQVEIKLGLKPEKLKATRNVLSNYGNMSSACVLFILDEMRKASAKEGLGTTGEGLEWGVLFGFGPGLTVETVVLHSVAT

[3] = biological target: T3, MlnE COM^A-CHS
T3 chain: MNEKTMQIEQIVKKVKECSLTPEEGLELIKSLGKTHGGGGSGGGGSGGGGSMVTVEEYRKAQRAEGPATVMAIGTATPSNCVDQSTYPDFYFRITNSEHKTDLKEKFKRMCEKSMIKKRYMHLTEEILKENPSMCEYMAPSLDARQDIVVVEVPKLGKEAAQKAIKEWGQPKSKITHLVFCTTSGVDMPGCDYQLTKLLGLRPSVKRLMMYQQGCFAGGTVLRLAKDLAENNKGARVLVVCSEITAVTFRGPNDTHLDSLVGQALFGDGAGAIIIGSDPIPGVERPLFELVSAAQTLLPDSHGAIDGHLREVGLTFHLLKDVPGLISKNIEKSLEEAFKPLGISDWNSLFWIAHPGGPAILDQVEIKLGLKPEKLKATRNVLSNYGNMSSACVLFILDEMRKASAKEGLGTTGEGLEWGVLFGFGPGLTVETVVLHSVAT

[4] = biological target: T4, TycB COM^A-CHS
T4 chain: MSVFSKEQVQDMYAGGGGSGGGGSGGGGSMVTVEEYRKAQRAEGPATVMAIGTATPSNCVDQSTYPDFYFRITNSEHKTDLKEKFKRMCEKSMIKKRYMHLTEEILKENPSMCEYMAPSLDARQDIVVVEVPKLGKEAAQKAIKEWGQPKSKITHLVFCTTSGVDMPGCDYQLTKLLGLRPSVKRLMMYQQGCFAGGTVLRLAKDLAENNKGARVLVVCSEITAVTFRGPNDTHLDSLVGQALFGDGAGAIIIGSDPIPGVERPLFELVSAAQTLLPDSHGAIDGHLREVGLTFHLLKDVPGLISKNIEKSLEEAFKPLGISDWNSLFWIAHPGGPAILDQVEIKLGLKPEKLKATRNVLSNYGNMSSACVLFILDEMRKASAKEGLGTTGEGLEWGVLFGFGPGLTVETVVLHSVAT

[5] = biological target: T5, MlnC COM^A-CHS
T5 chain: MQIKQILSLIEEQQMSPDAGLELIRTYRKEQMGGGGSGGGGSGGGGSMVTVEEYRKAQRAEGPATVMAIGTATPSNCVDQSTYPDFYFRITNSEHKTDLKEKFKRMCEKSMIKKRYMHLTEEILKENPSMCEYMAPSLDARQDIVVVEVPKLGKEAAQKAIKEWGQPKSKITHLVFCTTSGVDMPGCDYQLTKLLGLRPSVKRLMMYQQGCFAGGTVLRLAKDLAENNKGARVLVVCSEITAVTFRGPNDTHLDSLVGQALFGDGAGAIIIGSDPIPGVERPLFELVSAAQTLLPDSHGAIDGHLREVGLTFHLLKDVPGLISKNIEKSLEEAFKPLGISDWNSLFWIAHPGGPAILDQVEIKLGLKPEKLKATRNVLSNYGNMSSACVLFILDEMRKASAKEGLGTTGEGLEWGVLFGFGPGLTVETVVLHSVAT

B1: 4CL-TycB COM^D (protein)
chain: MAPQEQAVSQVMEKQSNNNNSDVIFRSKLPDIYIPNHLSLHDYIFQNISEFATKPCLINGPTGHVYTYSDVHVISRQIAANFHKLGVNQNDVVMLLLPNCPEFVLSFLAASFRGATATAANPFFTPAEIAKQAKASNTKLIITEARYVDKIKPLQNDDGVVIVCIDDNESVPIPEGCLRFTELTQSTTEASEVIDSVEISPDDVVALPYSSGTTGLPKGVMLTHKGLVTSVAQQVDGENPNLYFHSDDVILCVLPMFHIYALNSIMLCGLRVGAAILIMPKFEINLLLELIQRCKVTVAPMVPPIVLAIAKSSETEKYDLSSIRVVKSGAAPLGKELEDAVNAKFPNAKLGQGYGMTEAGPVLAMSLGFAKEPFPVKSGACGTVVRNAEMKIVDPDTGDSLSRNQPGEICIRGHQIMKGYLNNPAATAETIDKDGWLHTGDIGLIDDDDELFIVDRLKELIKYKGFQVAPAELEALLIGHPDITDVAVVAMKEEAAGEVPVAFVVKSKDSELSEDDVKQFVSKQVVFYKRINKVFFTESIPKAPSGKILRKDLRAKLANGLGGGGSGGGGSEYTPSDLGDEELSMEELENILEWI
In the case of B1, the “production of naringenin (UPLC-qTOF-HR-MS), two-step in vitro reaction” value [1] is reported as “the productivity by the metabolons with the remaining four pairs showed improvement”.

B2: 4CL-Kj12B COM^D (protein)
chain: MAPQEQAVSQVMEKQSNNNNSDVIFRSKLPDIYIPNHLSLHDYIFQNISEFATKPCLINGPTGHVYTYSDVHVISRQIAANFHKLGVNQNDVVMLLLPNCPEFVLSFLAASFRGATATAANPFFTPAEIAKQAKASNTKLIITEARYVDKIKPLQNDDGVVIVCIDDNESVPIPEGCLRFTELTQSTTEASEVIDSVEISPDDVVALPYSSGTTGLPKGVMLTHKGLVTSVAQQVDGENPNLYFHSDDVILCVLPMFHIYALNSIMLCGLRVGAAILIMPKFEINLLLELIQRCKVTVAPMVPPIVLAIAKSSETEKYDLSSIRVVKSGAAPLGKELEDAVNAKFPNAKLGQGYGMTEAGPVLAMSLGFAKEPFPVKSGACGTVVRNAEMKIVDPDTGDSLSRNQPGEICIRGHQIMKGYLNNPAATAETIDKDGWLHTGDIGLIDDDDELFIVDRLKELIKYKGFQVAPAELEALLIGHPDITDVAVVAMKEEAAGEVPVAFVVKSKDSELSEDDVKQFVSKQVVFYKRINKVFFTESIPKAPSGKILRKDLRAKLANGLGGGGSGGGGSLLKEKRKHFQAEQNSSQEYLRGEI
For B2, the “production of naringenin (UPLC-qTOF-HR-MS), two-step in vitro reaction” value [2] was “productivity by 2-step metabolon_5, Kj12B-C was found similar to that by free enzymes (2-step_control: Free)”.

B3: 4CL-MlnD COM^D (protein)
chain: MAPQEQAVSQVMEKQSNNNNSDVIFRSKLPDIYIPNHLSLHDYIFQNISEFATKPCLINGPTGHVYTYSDVHVISRQIAANFHKLGVNQNDVVMLLLPNCPEFVLSFLAASFRGATATAANPFFTPAEIAKQAKASNTKLIITEARYVDKIKPLQNDDGVVIVCIDDNESVPIPEGCLRFTELTQSTTEASEVIDSVEISPDDVVALPYSSGTTGLPKGVMLTHKGLVTSVAQQVDGENPNLYFHSDDVILCVLPMFHIYALNSIMLCGLRVGAAILIMPKFEINLLLELIQRCKVTVAPMVPPIVLAIAKSSETEKYDLSSIRVVKSGAAPLGKELEDAVNAKFPNAKLGQGYGMTEAGPVLAMSLGFAKEPFPVKSGACGTVVRNAEMKIVDPDTGDSLSRNQPGEICIRGHQIMKGYLNNPAATAETIDKDGWLHTGDIGLIDDDDELFIVDRLKELIKYKGFQVAPAELEALLIGHPDITDVAVVAMKEEAAGEVPVAFVVKSKDSELSEDDVKQFVSKQVVFYKRINKVFFTESIPKAPSGKILRKDLRAKLANGLGGGGSGGGGSDTADGEIMSLLEKAQTGEMNTKETSELIEELLFHE
In the case of B3, the “production of naringenin (UPLC-qTOF-HR-MS), two-step in vitro reaction” value [3] is reported as “the productivity by the metabolons with the remaining four pairs showed improvement”.

B4: 4CL-TycA COM^D (protein)
chain: MAPQEQAVSQVMEKQSNNNNSDVIFRSKLPDIYIPNHLSLHDYIFQNISEFATKPCLINGPTGHVYTYSDVHVISRQIAANFHKLGVNQNDVVMLLLPNCPEFVLSFLAASFRGATATAANPFFTPAEIAKQAKASNTKLIITEARYVDKIKPLQNDDGVVIVCIDDNESVPIPEGCLRFTELTQSTTEASEVIDSVEISPDDVVALPYSSGTTGLPKGVMLTHKGLVTSVAQQVDGENPNLYFHSDDVILCVLPMFHIYALNSIMLCGLRVGAAILIMPKFEINLLLELIQRCKVTVAPMVPPIVLAIAKSSETEKYDLSSIRVVKSGAAPLGKELEDAVNAKFPNAKLGQGYGMTEAGPVLAMSLGFAKEPFPVKSGACGTVVRNAEMKIVDPDTGDSLSRNQPGEICIRGHQIMKGYLNNPAATAETIDKDGWLHTGDIGLIDDDDELFIVDRLKELIKYKGFQVAPAELEALLIGHPDITDVAVVAMKEEAAGEVPVAFVVKSKDSELSEDDVKQFVSKQVVFYKRINKVFFTESIPKAPSGKILRKDLRAKLANGLGGGGSGGGGSERTPSDFSVKGLQMEEMDDIFELLANTLR
B4 was tested, and the “production of naringenin (UPLC-qTOF-HR-MS), two-step in vitro reaction” value [4] was “the productivity by the metabolons with the remaining four pairs showed improvement”.

B5: 4CL-MlnB COM^D (protein)
chain: MAPQEQAVSQVMEKQSNNNNSDVIFRSKLPDIYIPNHLSLHDYIFQNISEFATKPCLINGPTGHVYTYSDVHVISRQIAANFHKLGVNQNDVVMLLLPNCPEFVLSFLAASFRGATATAANPFFTPAEIAKQAKASNTKLIITEARYVDKIKPLQNDDGVVIVCIDDNESVPIPEGCLRFTELTQSTTEASEVIDSVEISPDDVVALPYSSGTTGLPKGVMLTHKGLVTSVAQQVDGENPNLYFHSDDVILCVLPMFHIYALNSIMLCGLRVGAAILIMPKFEINLLLELIQRCKVTVAPMVPPIVLAIAKSSETEKYDLSSIRVVKSGAAPLGKELEDAVNAKFPNAKLGQGYGMTEAGPVLAMSLGFAKEPFPVKSGACGTVVRNAEMKIVDPDTGDSLSRNQPGEICIRGHQIMKGYLNNPAATAETIDKDGWLHTGDIGLIDDDDELFIVDRLKELIKYKGFQVAPAELEALLIGHPDITDVAVVAMKEEAAGEVPVAFVVKSKDSELSEDDVKQFVSKQVVFYKRINKVFFTESIPKAPSGKILRKDLRAKLANGLGGGGSGGGGSKNEDQEILFLLEQLKNGELSADQVYQLLEGK
B5 was tested, and the “production of naringenin (UPLC-qTOF-HR-MS), two-step in vitro reaction” value [5] was “the productivity by the metabolons with the remaining four pairs showed improvement” and the “production of naringenin (UPLC-qTOF-HR-MS), two-step in vitro reaction, against free enzymes” value [5] was “improved by 2 fold or more compared to that by free enzymes (Free) after 20 minutes of the reaction”.
